The target of one assay is GST-Casp8p41 (UniProt Q14790). Kind of assay: SPR, GST-Bcl-2 R146A over immobilized Casp8p41.
Another assay addresses GST-Mcl-1 (UniProt Q07820). Kind of assay: SPR (Biacore 3000), GST-Mcl-1 binding to GST-Casp8p41, mean of 3 experiments; target Mcl-1. A general note: SPR reads the build-up and loss of mass on a sensor chip optically.
Another assay deals with GST-Bcl-xL (UniProt Q07817). Kind of assay: SPR (Biacore 3000), GST-Bcl-xL binding to GST-Casp8p41, mean of 3 experiments; target Bcl-xL.
Chain of GST-Bcl-xL (Q07817 1-212): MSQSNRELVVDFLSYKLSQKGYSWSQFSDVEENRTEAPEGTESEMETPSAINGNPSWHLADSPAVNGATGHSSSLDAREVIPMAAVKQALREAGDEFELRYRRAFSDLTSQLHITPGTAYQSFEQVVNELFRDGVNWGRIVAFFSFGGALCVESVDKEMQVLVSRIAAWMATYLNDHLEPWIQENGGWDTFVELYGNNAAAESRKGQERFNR
Assay [1] has as its target GST-Bcl-2 (human) (UniProt P10415). Kind of assay: SPR (Biacore 3000), GST-Bcl-2 injected over immobilized GST-Casp8p41, mean of 3 experiments; target Bcl-2.
The target is the same in assay [2]. Kind of assay: SPR, GST-Casp8p41 Val150Glu/Leu157Lys over immobilized GST-Bcl-2.

What is called Kd is the free concentration of one partner at which half of the binding sites on the other are occupied at equilibrium, for simple one-to-one binding.

Chain of GST-Bcl-2 (human) (P10415 1-218): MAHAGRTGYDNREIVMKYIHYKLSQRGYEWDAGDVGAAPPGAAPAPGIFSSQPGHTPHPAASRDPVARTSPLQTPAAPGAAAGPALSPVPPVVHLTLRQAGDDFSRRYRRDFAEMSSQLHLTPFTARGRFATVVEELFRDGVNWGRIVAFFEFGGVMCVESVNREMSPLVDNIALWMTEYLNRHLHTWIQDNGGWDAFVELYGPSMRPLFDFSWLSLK
Chain of GST-Mcl-1 (Q07820 1-327): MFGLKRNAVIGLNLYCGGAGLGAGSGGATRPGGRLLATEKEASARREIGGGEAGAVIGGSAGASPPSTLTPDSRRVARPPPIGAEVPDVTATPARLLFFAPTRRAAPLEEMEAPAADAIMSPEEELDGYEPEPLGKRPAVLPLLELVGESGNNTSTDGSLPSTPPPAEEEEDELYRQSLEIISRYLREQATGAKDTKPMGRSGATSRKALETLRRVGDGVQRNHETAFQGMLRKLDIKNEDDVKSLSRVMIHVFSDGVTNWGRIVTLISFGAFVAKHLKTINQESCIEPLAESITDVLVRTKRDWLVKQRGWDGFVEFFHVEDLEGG

In the assay with GST-Casp8p41, “GST-Bcl-2 R146A (from UniProt P10415 1-218)” gave a fold decrease in affinity against wild-type Bcl-2 of 250 fold. Consider “GST-Casp8p41 (from UniProt Q14790 1-479)”, for which the equilibrium dissociation constant (Kd) with GST-Mcl-1 amounted to 8 nM; in the assay with GST-Bcl-xL it was 11 nM; in the assay with GST-Bcl-2 (human) [1] it was 13 nM. In the assay with GST-Bcl-2 (human) [2], “GST-Casp8p41 Val150Glu/Leu157Lys (from UniProt Q14790 1-479)” showed a fold decrease in affinity against wild-type Casp8p41 greater than 300 fold.

For the origin of these results see US20240374532A1.
